Experiment: label from the status in PepcDB records

| Sequence | protein production |
| --- | --- |
| MISGNTINHKNNMAGLKSLVKDTALYGLSSMVGRFLNYLLVPLYTAVLPAASGGYGVVTNVYAWAGLIMVLLTFGMETGFFRFANKSEEDPVKVYANSLISVGGISLIFAILCLTFLQPVSHLLEYGDHPDFIGMMIIVMALDAFLCIPFAYLRFKKRPIKFVAIKFVSIIANIVLNLFFLLLCPWLHEHFPAWVDWFYNPTYLVGYIFVSNLITTCLQLFCLIPELRGFAYRVDKQLLKRMLIYSFPILIFGLVGILNQTVDKIIYPFLFADRQEGLVQLGIYGAATKIAMVMAMFTQAFRYAYEPFVFGKQKEGDNRRMYAQAMKYFLIFAMFAFLVVMFYLDLLRYMVAPDYWAGLSVVAIVIGAEIFKGIYFNLSFWYKLIDETRWGAYFSIVGCVIIVGMNVMLVPTYGFVASAWASVAGYAVITILSYWIGQKKYPIHYDLKHLGTYVLFTAVLYVIGEWVPIENIVLRLAFRTVLLLIFMAYVVRKDLPLSQIPVINRIIKKK | failed |
| MISLPYLQRFALSGQVALVTGSARGLGLRIAQALAGSGAHVLLNGRDAHAVEAAVSDLRQQGLRASALPFDVSDEQATEQAFARIDAEHGRLDILVNNVGARNRKPLAETSPAEIRAMMDTNLVAGILLARLAAQRMVRQRYGRLIAITSVAGELARANDAVYPAAKQGLTGMMRALAVEFGRHGITSNAIAPGAFATETNAAMANDPQAGAAMAARNPTGRWGDPEEIAGAAVFLASPAASYVNGHVLVVDGGLSVQF | failed |
| MISRHLQNNLMSVDPASSQAMELSDVTLIEGVGNEVMVVAGVVVLILALVLAWLSTYVADSGSNQLLGAIVSAGDTSVLHLGHVDHLVAGQGNPEPTELPHPSEGNDEKAEEAGEGRGDSTGEAGAGGGVEPSLEHLLDIQGLPKRQAGAGSSSPEAPLRSEDSTCLPPSPGLITVRLKFLNDTEELAVARPEDTVGALKSKYFPGQESQMKLIYQGRLLQDPARTLRSLNITDNCVIHCHRSPPGSAVPGPSASLAPSATEPPSLGVNVGSLMVPVFVVLLGVVWYFRINYRQFFTAPATVSLVGVTVFFSFLVFGMYGR | failed |
| MISRNLKIYFRDRTAVFMSLLTVLIIIGLYAIFLGNNMEEMFKQASGKTVGIQELVNTWVIAGILSITPVTVSLAVFSLKVHDEELSIARSFAITSASRWRIVISYIVSGLVASFLLSVITLFVGEMYIWLTGGEFLPFESWIRLIGIILINVLCCSSIMFFIASLVKKASAFSSVSTIVGTVIGFIAGIYLPIGSLPAAVQTAMKCFPFTYGASTIREIMTKEPLKEVFAGNTGAMDATKEMIGITIYWGDKTVTTGLSLLILSAFAVVFGVLSVILMKRQTK | failed |
| MISSLTTIISTGTNLGSGTDDDIYFGIHLNNGQKKEWLLDKETYNDFENGATDEYYLYINDMDFLPTMVDKVWVRKNSTGSFAGNWFFKALRIDANGNDVLSVSPNEWITDLEHHHHHH | not failed |
| MISSMNFWRCRCSKDDAEQSMLYSYNNGFLGFSAKLNSTQAASLAKLNQVITVFKSKSLKLHTTRSWDFLGLAVDNARRTPPPQLAYGSDIVVGIFDTGLFISLKLLLLSILGIWPESESFRETPEAKPIPSSWNGKCVGGEDFDPSVHCNRKLIGARFYLRGFEETYGTIDFTRDPEYRSPRDYLGHGTHTASTAVGSVVRNVSGFFGLGRGTARGGAPLARLAVFKTCWGKDLEGVCTEADILAAFDDAIHDGVHVISASFGYSPPLSPFFESSADIGAFHAAERGISVVFSTGNDGPDPGVVQNVAPWAVSVAASTVDRSFPTRIVIDGSFTLTGQSLISQEITGTLALATTYFNGGVCKWENWMKKLANETIILCFSTLGPVQFIEEAQAAAIRANALALIFAASPTRQLAEEVDMIPTVRVDILHGTRIRNYLARSPTVPMVKIGPSKTVIGETTAPSVAYFSSRGPSSLSPDILKPDITAPGIGILAAWPPRTPPTLLPGDHRSIEWNFQSGTSMSCPHVAGVMALLQSAHPDWSPSAIRSAIMTTAYTRDTSYDLILSGGSMKSTDPFDIGAGHINPLKAMDPGLVYNTRTDDYVLFMCNIGYTDQEIKSMVLHPEPSTTCLPSHSYRTNADFNYPSITIPSLRLTRTIKRTVSNVGPNKNTVYFVDIIRPVGVEVLIWPRILVFSKCQQEHSYYVTFKPTEIFSGRYVFGEIMWTNGLHRVRSPVVVFLSNAGFLASS | failed |
| MISTTTVSDLYITFGLIGVFLAGMIAVLYATNRKSDSFSDYAVGGRSYGPWFIAMCYTNSWWPGATFTAFFALSVGGALGFYGMVYATLGVTAMYLMANRAWTWGKRFNLTTQPDLLGMRFNSPVVKRIASIIGIISVFPWVVMGIQALATLFQFASFGRWGVTTCLLVGVAVILIRQYWTVSMGMRGLIMTDMYQGLIAYVLCAALCIFLMFGAQASFSNLSQLPASMLVIPGGTGSTYGPMYMFSLIFTGVIGSMCWPMSFQRIYTASGVRSVKKGTLLTILLVGGFYGILMLFAAAISQDPNVAAHPQHGWFLSLFDIGGPWLLAVAIMIVLAASIGHVDGCVQVCGTQFANDLATWNTPRSDREKTILAKAGMVVFIAAASLLAYLTFDYARLQLLAQISYQGIIQLAVPLFFGVFSRRGNKQGAIVGMLVGIVIAIVLTTIYPDDIPGLGSLTSGIVGLIFNAGIFVACAVAIKPSAEEVRRVDELFAMAAPQRHPAGVAPVMS | failed |
| MISVFDIYKIGVGPSSSHTVGPMKAGKEFIDDLRAMGKLRDITKITVDVYGSLSLTGKGHHTDIAIIMGLAGNSPEKVDIDSIPGFIARVEETERLPVGMHCHTVSFPREGGMNFHKTNLELHENGMQIHAWIDDEKVYSKTYYSIGGGFIVDEENFGK | not failed |
| MISVGKGKIMITPDHNIIKPIAIVLPQFHPIRENNLWWGEGFTEWTNVVKGRPRFRGHYQPHLPKDLGYYDLRLPETRKAQAALATKYGIYGFCYYHYWFNGRRILESPVDAMLESGEPDFPFMLCWANENWTRNWDGSYNKVLLEQKYSKEDFVNHARHLIRYFKDDRYIKIDGRPVFAIYKDDIGEDIEKYLLLFRNELLKNSINVFLCRFERNIGTSRDLNRAFQVFDAGIEFQPLARQFSYLINYNNRLSRRIYKTLKKHFCFCKNIDDVYVYSHLVDNDLKYDFQQGWPIFPGVCPGWDNSARRRDTTAIIFDKSTPEIFKLWVREKIRITDWNLLPERFLFVNAWNEWAEGNHLEPCEKWGTQYLAALQAGINEM | failed |
| MISVTAYEWIGLFIGMIIGGLAEAWGISNPEVLIRLGKWEDRLFIGCIAIAIGAGAIVLYGLSALGVSFHWGIKPDYVIGVALGGIIFGTGIAISGYVPGTVWMALGEGRRDAIYAVLGGLLGAASWTLIYQTSFGHWLTTYLNFGQIYFGGKVGTDLKLGFIIAIVWAIIMFVIAYTLPRYRKGKSCAYLSTHKNYKLDAEEEKEYIETANFLMEGTSMPIGKNNLPEKVNYHWTVSSKLFGVTMLSVGIIIGLTVVLEMFLHQIFGESTTYSWIVAQIWLPAGYWQYSTIVVHTIGWEPFSDIGTLFGAFLASIFFTRRFQAFSNVIPPSWKERFGNSQIKRAAGAFSGAYLMLLGARMADGCASGHILSGDLQMAVSSLEFFIFVVIFLLLVAHIIYRR | failed |
| MISVVGAGGKTSLLFWLAELLQASGRRVLITTTTHMFMPTSHWPVVFCRDPAMLPHASLTSPISFCFHSWKANQGKVQGFTPEAIDALVQRPECDVILIEADGSRGMPLKAPDEHEPCIPKSSCCVIAVMGGHTLGAKVSTENVHRWSQFADITGLTPDATLQLSDLVALVRHPQGAFKNVPQGCRRVWFINRFSQCENAIAQSELLQPLQQHDVEAIWLGDIQEHPAIARRFVNLEHHHHHH | not failed |
| MISVVIPLFNKAPHIVRAVESVLEQSSPADEIIVVDDGSTDGGGELLLPYVAKHGVRLIRQENAGVSVARNHGVNLAASDYVAFLDADDFWLPNHIATLRRLIDNYPEASLFSTALIIERDGRQWRSKSTYSDGWEGVVQDFFTEYLRRFALVSSTTSCVRKKDFCSIGGFPVGVKYGEDFICWMKMALFYRVAHAEVVTAVYCLDAVNRTDQLQETDVLAPLQFIAKLLQSNELDNAQRVGLAQLFDHISFSTGARFRINSNLNGVNAIRNLSWEMGHYRVSLLMSALRFTPSLLLQAAKRFRYRQVSVV | failed |
| MITIENSKFKAGIAERGAELQSLVNKADNYEYVWTGDKTFWNRHAPILFPSIGKSNQDQYRLGAKTYPMSQHGFARDYDFDVSDKSDSAVTFTQHQNAETLKKFPFEYTLAVTYMLTDGGLSVHYTVTNDDSKSMPFALGFHPAFNVGLKADGSFDDYDLTVEPLNSPLQRFGIGPVPFRNGDVEDIPGAEGNRLPLTHDLLDGGLVILANSEIAKATLASPHHDHSITLDISDFPYLTIWSPEHKKAPFIAVEPFDGLPDQAGEPTDWYTKLGNTTLSAGANKQLALKVELHLEHHHHHH | failed |
| MITIRNKIGQMLIMGFHGSELHDNSPVAQWLSNDGLGGVLLFDKDLSTGIYGKNLRNQAQIKQLIRQLNRYASMISGGNDNLPLFTAIDYEGGVVDRLSKIEGCPPTMKARELAKLSSDDFDEEVTQMAMTLQSLGFNLNFAPVVDLNLNAHAGIIGNLGRSFSSNPEVTIRLAKQFVDVFSRYGIACAYKHFPGHGSATGDTHEGFVDVTETFQTDELIPYRSLLKDLSNPFMVMTAHVINKHLDSKGLPATLSYDVLTLLLRQSIGYDGVIISDDLQMHAISNHYSLEDALCLTINAGADMVIFANQLGTITPPEVIDVIEKLVIDKQIPYQRIDEAYRRIVRLKQQIICSELINT | failed |
| MITKDVKEQLIQVSGPENFDDSNAGRLVYSYDATPQYQSMPDAVIAPRNTDEISRILTICSEHRVPIVPRGSGTNLCGGTCPTEGGLVLLFKHMNQILEIDEENLTATVQPGVITLDMIRAVESKGLFYPPDPSSMKISTIGGNINENSGGLRGLKYGVTRDYVIGLEVVLANGDIIRTGGKLAKDVAGYDLTRLFVGSEGTLGIVTEAIVKLVPKPETKKTLLALYENIDAAAQTVSDIIAAKIIPATLEFLDQPTLLVIEDYAKIGLPTSAKAVLLIEQDGPFETVERDMEKIEAICKKGDAVSVQTAQTEEEAFALTEARRSALSALARLKPTTILEDATVPRSEIANMVKAINDIAAKYDISICTFGHAGDGNLHPTCTTDIRNKDEMERVEQAFAEIFEKAIELGGTITGEHGVGEMKAPYLEMKLKKEGIDAMKALKAAFDPRNILNPGKMFAKDARKRVVAER | failed |
| MITKFPPQWQEKLDQVAFTHLTPIQEQAFQPIVDGKNFLGISPTGTGKTLAYVFPNLLALTPKKSQQLLILAPNTELAGQIFEVTKDWAQPLGLTAQLFISGTSQKRQIERLKKGPEILIGTPGRIFELIKLKKIKMMSVNTIVLDEYDELLGDSQYDFVQKISHYVPRDHQMVYMSATNKVDQTSLAPNTFCIDLSEQTNDAIQHFYLMVDKRERTDLLRKFTNIPHFRALVFFNSLSDLGATEERLQYNGAAAVSLASDINVKFRKTILEKFKSHQLSLLLATDLVARGIDIDNLDYVIHFDVARDKENYTHRAGRTGRMGKSGIVITFVSHPEDLKKLKKFAKVSEISLKNQQLHFIN | failed |
| MITLNAWYVTWTELYKKKTVKMTTIYKNHSYYNSRVKNSIGKMYLQDIKTYHVQKFLNDLIDSGLAHGTVSNIRFMLSDMFDKAVLSEYIRKNPCIGVEMPKEVKKERLEHHHHHH | failed |
| MITNQRIARLNAWGAHGFTATGVVLAFLATIALFNNEPKACLLWLGAALIVDGVDGSLARKVNTTSVLPHFDGSVLDLVIDYLTYVFIPALFIYRYIPVPDYTLLLSVSVILVSSLFCFCNVDMKSKDNYFQGFPAAWNVVALCLYILSPAPWLTFITIIALALLTMTRMKFLHPFRVRRFMPLNIAVTTVWLLASALLIINHPHNGPLVMGLWLAMSAYFLGICIWRTSLEWLGRLKA | failed |

Source: a protein production outcome set (Wang et al. 2014)
